In patent US20170332622A1, “COMPOSITIONS AND METHODS FOR PRESERVATION AND STORAGE OF BIOLOGICAL MATERIALS” (The University of North Carolina at Charlotte, priority 2016, published 2017):
Like-named read-outs stand apart in the source and are kept apart here.

Columns and labels:
[1] = cited from earlier work
[2] = Solubility of lysozyme by turbidimetric assay (absorbance at 600 nm); type: physicochemical
Description: Initial solubility studies were performed on the model protein lysozyme in water. Samples having known concentrations were prepared by weighing the lysozyme and adding the appropriate amount of water to get the desired concentration in mg/mL. The samples were gently inverted several times and stored at room temperature for 1 hour to overnight to allow the protein to rehydrate. Solubility limits were determined via turbidimetric assay.
The samples were then placed in a Biotek Synergy plate reader and absorbance was measured from 200 nm to 900 nm. As FIG. 1 illustrates, lysozyme has a characteristic […] at 280 nm that can be used along with Beer-Lambert's law to measure the concentration, however, for samples above 5 mg/mL, the instrument sensor becomes saturated and the readings are not useful for determining concentration. Therefore, to determine solubility limits, the absorbance at 600 nm was used to indicate the presence of aggregate or particulate in suspension. At this wavelength, far from the characteristic absorbance, any increase in absorbance is an indicator that the protein is not completely in solution. A baseline was established by measuring the absorbance of pure water or TCH solution without any lysozyme. Samples were measured in triplicate and the averages are plotted in the accompanying figures.
To determine the effect of TCH on the solubility of lysozyme, values for the solubility of lysozyme in TCH formulations as a function of water content were obtained. […] There is a characteristic peak proximate 280 nm that can be used can be used along with Beer-Lambert's law to determine concentrations, however, the spectra is near zero away from this peak.

[3] = Thermal stability of lysozyme in TCH by differential scanning calorimetry; type: physicochemical
Description: TCH solutions were prepared, water was added, and the water content was measured using Karl Fischer titration until the desired solutions were achieved. Lysozyme was weighed into the container and the appropriate amount of TCH was added to achieve a solution with a concentration of approximately 1 mg/mL. Samples were gently inverted several times and left at room temperature for one hour or overnight to allow the lysozyme to rehydrate and go into solution. Some samples were dried by evaporative drying and rehydrated prior to scanning Another sample of lysozyme in 0.1M sodium acetate buffer pH 4 was prepared for comparison.
To determine the stability of lysozyme in TCH over time, a set of samples was prepared at stable moisture contents and stored at the appropriate humidity at room temperature for a period of five weeks. These samples were prepared with a protein concentration of 10 mg/mL prior to storage. After five weeks, they were diluted to approximately 1 mg/mL and scanned using differential scanning calorimetry (DSC).
A Micro-cal VP DSC was used for determining the thermal stability of the protein. A baseline was established by scanning the TCH solution without protein at least three times until repeatability was evident. The TCH solutions used for the baseline scans are identical to the sample solutions, without protein. The baseline scans of the solutions without protein help eliminate noise resultant from variation in the sample cells. […] The concentration of lysozyme in each sample was verified prior to scanning by reading the absorbance at 280 nm on the Biotek Synergy plate reader. […]
The DSC thermal traces were fit in OriginPro with a non-two-state model that includes an output of both calorimetric enthalpy and Van't Hoff enthalpy, Hv. The calorimetric enthalpy is determined by the area under the curve and depends on the selected baseline as well as the normalized concentration. […] The number of intermediate steps in the unfolding process can be determined by taking the ratio of calorimetric enthalpy to Van't Hoff enthalpy. […]

[4] = in NaH2PO4; cited from earlier work

Molecule | solubility limit ([1]; 10° C.) | solubility limit ([1]; 20° C.) | water content corresponding to solubility limit ([1]; 20° C.) | solubility limit ([1]; 40° C.) | solubility limit, as water content ([1]; pure trehalose) [% water by weight] | solubility ([2]; in TCH 1:4 compositions, all water content levels tested (0.01 to 0.70 grams water per gram dry weight)) | solubility (in words) ([2]; in TCH solutions) | solubility (no indication of solubility issues up to maximum concentration tested) ([2]; in pure water) [mg/mL] | absorbance at 600 nm ([2]; lysozyme in TCH solutions, each sample measured) | degradation after storage ([3]; five weeks of storage in stable TCH solutions, moisture content and/or humidity controlled, room temperature) | thermal unfolding temperature, stored versus fresh samples ([3]; stored five weeks in TCH, DSC) | thermal unfolding temperature ([3]; versus weight percent of TCH in solution, DSC) | ratio of calorimetric to Van't Hoff enthalpies [4]
OC[C@H]1O[C@H](O[C@H]2O[C@H](CO)[C@@H](O)[C@H](O)[C@H]2O)[C@H](O)[C@@H](O)[C@@H]1O [trehalose] | 42.3 % (grams trehalose per gram solution) | 46.6 % (grams trehalose per gram solution) | 53.4 % (grams water per gram solution) | 59.7 % (grams trehalose per gram solution) | 53 |  |  |  |  |  |  |  | 
lysozyme |  |  |  |  |  | at least 40 mg/mL | readily soluble | ≥ 200 | below 0.05 | no sign of degradation | slightly higher unfolding temperature | increases with increasing concentrations of TCH | ~1
